Drawing on paper PMC12103069, this text covers Kd for 3 substances.

GST-MuRF1 (MuRF1 full length, TRIM63) (Rattus norvegicus), sequence (Q91Z63 whole entry, the tested form may be a part): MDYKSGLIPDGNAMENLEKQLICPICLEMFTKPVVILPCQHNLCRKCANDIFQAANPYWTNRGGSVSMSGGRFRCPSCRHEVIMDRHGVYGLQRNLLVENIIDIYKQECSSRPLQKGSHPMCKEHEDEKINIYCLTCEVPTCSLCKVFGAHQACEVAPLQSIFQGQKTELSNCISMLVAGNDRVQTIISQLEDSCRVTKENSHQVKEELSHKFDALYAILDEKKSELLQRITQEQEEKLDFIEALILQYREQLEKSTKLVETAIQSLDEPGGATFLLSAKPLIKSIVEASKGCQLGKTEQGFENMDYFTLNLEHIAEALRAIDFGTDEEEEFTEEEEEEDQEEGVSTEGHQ

The assay addresses GST-MuRF1 (MuRF1 full length, TRIM63) (Rattus norvegicus). The assay can be described thus: other fluorescence titration; change in the initial fluorescence of dye-labelled GST-MuRF (10 nM, constant) with a 16-sample serial dilution of the E2; MonolithX (NanoTemper), premium capillaries, 100% MST power, 25 °C; 50 mM HEPES pH 7.4, 150 mM NaCl, 0.005% Tween20, 0.1% dextran.
As a reminder, the Kd is the constant that tells how readily two partners part at equilibrium. “UBE2J2 cytosolic part K26A (from UniProt Q6P073 1-259) (domain or fragment)” displayed a Kd of 26 µM.
In turn, “UBE2J2 cytosolic part N6A,R8A (from UniProt Q6P073 1-259) (domain or fragment)” yielded a Kd of 8.9 µM.
Turning to “UBE2J2 cytosolic part P10A,T11A (from UniProt Q6P073 1-259) (domain or fragment)”, the Kd was determined as 10.3 µM.
